Experiments:
Assay in all cases: ProtoArray, G9a array SNR minus GST array SNR
[1] = target: STK17B, G9a-methylated (human) (UniProt O94768)
[2] = target: CALN1, G9a-methylated (human) (UniProt Q9BXU9)
[3] = target: C12orf23, G9a-methylated (human) (UniProt Q8WUH6)
[4] = target: TMEM32, G9a-methylated (human) (UniProt Q8N4V1)
[5] = target: PPIL5, G9a-methylated (human) (UniProt Q96L50)
[6] = target: TCTA, G9a-methylated (human) (UniProt P57738)
[7] = target: SCGB1A1, G9a-methylated (human) (UniProt P11684)
[8] = target: C11orf73, G9a-methylated (human) (UniProt Q53FT3)
[9] = target: CDC2, G9a-methylated (human) (UniProt P06493)
Chain of CDC2, G9a-methylated (human) (P06493 whole entry): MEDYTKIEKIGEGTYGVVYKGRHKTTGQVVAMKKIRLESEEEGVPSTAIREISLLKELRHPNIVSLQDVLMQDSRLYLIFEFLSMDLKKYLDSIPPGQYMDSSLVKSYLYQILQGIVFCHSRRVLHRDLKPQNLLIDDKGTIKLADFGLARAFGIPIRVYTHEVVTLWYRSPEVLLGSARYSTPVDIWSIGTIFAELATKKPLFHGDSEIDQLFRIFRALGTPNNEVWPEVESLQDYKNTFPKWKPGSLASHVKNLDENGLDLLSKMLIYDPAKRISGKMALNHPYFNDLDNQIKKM

[10] = target: TGDS, G9a-methylated (human) (UniProt O95455)
[11] = target: LTC4S, G9a-methylated (human) (UniProt Q16873)
Chain of LTC4S, G9a-methylated (human) (Q16873 whole entry): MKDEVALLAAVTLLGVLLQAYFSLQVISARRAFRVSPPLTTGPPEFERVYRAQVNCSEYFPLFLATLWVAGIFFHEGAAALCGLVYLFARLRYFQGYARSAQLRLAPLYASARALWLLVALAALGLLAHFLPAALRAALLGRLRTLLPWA

[12] = target: GAL, G9a-methylated (human) (UniProt P22466)
[13] = target: HPCAL4, G9a-methylated (human) (UniProt Q9UM19)
Chain of HPCAL4, G9a-methylated (human) (Q9UM19 whole entry): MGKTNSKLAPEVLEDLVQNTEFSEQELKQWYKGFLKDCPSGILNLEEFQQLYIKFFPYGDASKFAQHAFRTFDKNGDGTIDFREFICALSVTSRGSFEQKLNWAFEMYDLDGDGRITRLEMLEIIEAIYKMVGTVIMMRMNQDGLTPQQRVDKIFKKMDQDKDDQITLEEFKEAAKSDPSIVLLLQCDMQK

[14] = target: CTXN1, G9a-methylated (human) (UniProt P60606)
Chain of CTXN1, G9a-methylated (human) (P60606 whole entry): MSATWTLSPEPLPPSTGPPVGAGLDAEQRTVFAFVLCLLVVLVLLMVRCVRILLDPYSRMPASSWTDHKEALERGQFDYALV

[15] = target: KRR1, G9a-methylated (human) (UniProt Q13601)
[16] = target: VPS29, G9a-methylated (human) (UniProt Q9UBQ0)
[17] = target: ZNF695, G9a-methylated (human) (UniProt Q8IW36)
[18] = target: MOBKL3, G9a-methylated (human) (UniProt Q9Y3A3)
Chain of MOBKL3, G9a-methylated (human) (Q9Y3A3 whole entry): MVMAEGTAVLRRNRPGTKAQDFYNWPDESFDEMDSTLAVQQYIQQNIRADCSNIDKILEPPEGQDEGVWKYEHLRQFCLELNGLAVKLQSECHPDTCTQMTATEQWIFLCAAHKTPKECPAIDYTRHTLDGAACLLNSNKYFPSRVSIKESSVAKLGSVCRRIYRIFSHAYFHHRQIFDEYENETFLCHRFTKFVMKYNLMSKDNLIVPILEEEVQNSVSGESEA

[19] = target: KCTD7, G9a-methylated (human) (UniProt Q96MP8)
Chain of KCTD7, G9a-methylated (human) (Q96MP8 whole entry): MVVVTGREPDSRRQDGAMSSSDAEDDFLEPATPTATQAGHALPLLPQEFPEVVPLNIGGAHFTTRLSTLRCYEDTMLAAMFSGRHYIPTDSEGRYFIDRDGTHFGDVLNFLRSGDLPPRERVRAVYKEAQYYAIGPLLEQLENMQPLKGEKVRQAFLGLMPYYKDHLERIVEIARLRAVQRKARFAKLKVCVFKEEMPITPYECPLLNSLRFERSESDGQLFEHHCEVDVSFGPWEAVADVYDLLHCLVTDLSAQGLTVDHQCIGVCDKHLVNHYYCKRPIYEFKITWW

[20] = target: NME7, G9a-methylated (human) (UniProt Q9Y5B8)
Chain of NME7, G9a-methylated (human) (Q9Y5B8 37-376 limits assumed): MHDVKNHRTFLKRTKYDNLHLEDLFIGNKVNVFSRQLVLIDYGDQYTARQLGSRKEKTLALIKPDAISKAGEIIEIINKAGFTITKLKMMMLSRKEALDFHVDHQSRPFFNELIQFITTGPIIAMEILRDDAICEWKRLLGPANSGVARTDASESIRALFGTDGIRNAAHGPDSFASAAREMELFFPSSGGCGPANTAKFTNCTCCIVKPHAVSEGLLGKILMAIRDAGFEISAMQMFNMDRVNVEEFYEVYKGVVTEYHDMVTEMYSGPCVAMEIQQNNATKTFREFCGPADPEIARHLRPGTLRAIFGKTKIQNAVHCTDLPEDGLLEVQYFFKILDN

[21] = target: C10orf58, G9a-methylated (human) (UniProt Q9BRX8)
Chain of C10orf58, G9a-methylated (human) (Q9BRX8 whole entry): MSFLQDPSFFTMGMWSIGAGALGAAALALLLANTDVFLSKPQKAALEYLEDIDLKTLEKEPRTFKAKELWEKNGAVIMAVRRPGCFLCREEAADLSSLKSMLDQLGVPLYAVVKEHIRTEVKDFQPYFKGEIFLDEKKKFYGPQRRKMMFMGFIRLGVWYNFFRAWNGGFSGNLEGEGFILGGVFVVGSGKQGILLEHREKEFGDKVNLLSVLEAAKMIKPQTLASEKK

[22] = target: DNTT, G9a-methylated (human) (UniProt P04053)
[23] = target: UBE2D2, G9a-methylated (human) (UniProt P62837)
Chain of UBE2D2, G9a-methylated (human) (P62837 whole entry): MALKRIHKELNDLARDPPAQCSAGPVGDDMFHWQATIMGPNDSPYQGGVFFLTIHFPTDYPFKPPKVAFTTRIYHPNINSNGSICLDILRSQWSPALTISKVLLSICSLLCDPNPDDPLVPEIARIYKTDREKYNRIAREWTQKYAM

[24] = target: LPAL2, G9a-methylated (human) (UniProt Q16609)
Chain of LPAL2, G9a-methylated (human) (Q16609 22-132 limits assumed): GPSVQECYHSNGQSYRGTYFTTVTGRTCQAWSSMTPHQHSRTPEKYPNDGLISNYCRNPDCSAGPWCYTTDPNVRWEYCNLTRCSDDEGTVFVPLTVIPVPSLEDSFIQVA

[25] = target: ZBP1, G9a-methylated (human) (UniProt Q9H171)
[26] = target: BLCAP, G9a-methylated (human) (UniProt P62952)
[27] = target: TEAD4, G9a-methylated (human) (UniProt Q15561)
Chain of TEAD4, G9a-methylated (human) (Q15561 130-434 limits assumed): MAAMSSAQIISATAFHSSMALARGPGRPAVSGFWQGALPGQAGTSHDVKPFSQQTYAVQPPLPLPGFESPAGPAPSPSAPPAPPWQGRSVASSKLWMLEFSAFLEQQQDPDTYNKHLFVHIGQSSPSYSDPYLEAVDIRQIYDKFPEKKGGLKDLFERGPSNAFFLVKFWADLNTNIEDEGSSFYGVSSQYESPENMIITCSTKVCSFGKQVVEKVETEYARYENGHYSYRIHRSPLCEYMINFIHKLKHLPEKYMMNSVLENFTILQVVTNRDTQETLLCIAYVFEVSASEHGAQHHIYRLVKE

[28] = target: CAB39L, G9a-methylated (human) (UniProt Q9H9S4)
Chain of CAB39L, G9a-methylated (human) (Q9H9S4 whole entry): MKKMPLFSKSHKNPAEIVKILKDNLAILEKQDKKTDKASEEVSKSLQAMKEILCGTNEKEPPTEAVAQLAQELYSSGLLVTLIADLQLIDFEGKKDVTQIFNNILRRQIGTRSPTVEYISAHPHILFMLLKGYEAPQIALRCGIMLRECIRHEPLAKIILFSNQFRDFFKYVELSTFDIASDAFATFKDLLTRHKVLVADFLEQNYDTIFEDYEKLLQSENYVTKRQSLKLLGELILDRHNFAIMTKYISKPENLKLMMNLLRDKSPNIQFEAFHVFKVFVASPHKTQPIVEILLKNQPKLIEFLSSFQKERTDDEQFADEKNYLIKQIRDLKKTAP

[29] = target: BHMT, G9a-methylated (human) (UniProt Q93088)
Chain of BHMT, G9a-methylated (human) (Q93088 whole entry): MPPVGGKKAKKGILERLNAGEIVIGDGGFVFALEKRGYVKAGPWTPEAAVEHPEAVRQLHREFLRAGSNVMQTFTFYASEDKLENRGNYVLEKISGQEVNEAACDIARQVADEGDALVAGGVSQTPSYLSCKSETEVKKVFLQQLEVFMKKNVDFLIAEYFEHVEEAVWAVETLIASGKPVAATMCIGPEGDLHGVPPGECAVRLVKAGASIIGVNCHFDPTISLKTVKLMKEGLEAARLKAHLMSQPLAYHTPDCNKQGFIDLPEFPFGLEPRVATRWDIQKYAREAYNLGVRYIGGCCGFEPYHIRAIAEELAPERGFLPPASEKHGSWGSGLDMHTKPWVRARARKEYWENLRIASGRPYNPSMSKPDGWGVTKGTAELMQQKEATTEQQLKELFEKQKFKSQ

[30] = target: CDKL5, G9a-methylated (human) (UniProt O76039)
[31] = target: SMYD5, G9a-methylated (human) (UniProt Q6GMV2)
Chain of SMYD5, G9a-methylated (human) (Q6GMV2 whole entry): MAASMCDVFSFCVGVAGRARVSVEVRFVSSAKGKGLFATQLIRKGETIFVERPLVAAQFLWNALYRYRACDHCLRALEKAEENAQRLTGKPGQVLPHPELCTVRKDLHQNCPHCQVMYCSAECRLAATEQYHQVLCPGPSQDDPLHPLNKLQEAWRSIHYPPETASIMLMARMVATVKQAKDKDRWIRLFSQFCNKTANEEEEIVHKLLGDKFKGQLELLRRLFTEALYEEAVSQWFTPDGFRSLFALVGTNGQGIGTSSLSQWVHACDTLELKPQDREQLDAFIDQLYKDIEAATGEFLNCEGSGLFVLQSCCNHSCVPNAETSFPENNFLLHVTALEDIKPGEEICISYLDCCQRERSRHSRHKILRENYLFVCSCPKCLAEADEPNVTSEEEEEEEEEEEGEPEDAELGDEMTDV

[32] = target: C12orf62, G9a-methylated (human) (UniProt Q96I36)
Chain of C12orf62, G9a-methylated (human) (Q96I36 whole entry): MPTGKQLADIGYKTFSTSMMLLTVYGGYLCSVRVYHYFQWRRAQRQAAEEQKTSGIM

[33] = target: C12orf60, G9a-methylated (human) (UniProt Q5U649)
[34] = target: SEC22B, G9a-methylated (human) (UniProt O75396)
Chain of SEC22B, G9a-methylated (human) (O75396 whole entry): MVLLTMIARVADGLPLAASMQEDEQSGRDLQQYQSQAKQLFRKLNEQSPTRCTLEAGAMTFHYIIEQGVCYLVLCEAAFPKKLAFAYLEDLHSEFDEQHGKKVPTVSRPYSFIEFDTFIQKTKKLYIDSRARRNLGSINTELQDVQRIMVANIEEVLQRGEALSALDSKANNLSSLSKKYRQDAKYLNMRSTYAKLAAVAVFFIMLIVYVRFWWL

[35] = target: PAEP, G9a-methylated (human) (UniProt P09466)
[36] = target: LYPLAL1, G9a-methylated (human) (UniProt Q5VWZ2)
[37] = target: RASSF4, G9a-methylated (human) (UniProt Q9H2L5)
[38] = target: CUTC, G9a-methylated (human) (UniProt Q9NTM9)
[39] = target: RTN1, G9a-methylated (human) (UniProt Q16799)
[40] = target: CA13, G9a-methylated (human) (UniProt Q8N1Q1)
Chain of CA13, G9a-methylated (human) (Q8N1Q1 whole entry): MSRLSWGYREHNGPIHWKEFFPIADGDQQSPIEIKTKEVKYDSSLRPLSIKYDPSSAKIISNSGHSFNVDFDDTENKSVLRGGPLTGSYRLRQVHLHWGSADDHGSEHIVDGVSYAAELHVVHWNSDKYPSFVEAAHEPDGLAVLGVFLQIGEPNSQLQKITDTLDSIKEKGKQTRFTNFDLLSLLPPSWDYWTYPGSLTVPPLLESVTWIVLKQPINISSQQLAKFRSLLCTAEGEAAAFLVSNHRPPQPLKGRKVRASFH

Chain of TMEM32, G9a-methylated (human) (Q8N4V1 whole entry): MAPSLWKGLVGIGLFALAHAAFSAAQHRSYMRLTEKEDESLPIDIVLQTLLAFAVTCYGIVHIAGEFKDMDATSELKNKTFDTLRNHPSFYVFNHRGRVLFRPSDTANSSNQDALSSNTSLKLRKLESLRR
Chain of PPIL5, G9a-methylated (human) (Q96L50 whole entry): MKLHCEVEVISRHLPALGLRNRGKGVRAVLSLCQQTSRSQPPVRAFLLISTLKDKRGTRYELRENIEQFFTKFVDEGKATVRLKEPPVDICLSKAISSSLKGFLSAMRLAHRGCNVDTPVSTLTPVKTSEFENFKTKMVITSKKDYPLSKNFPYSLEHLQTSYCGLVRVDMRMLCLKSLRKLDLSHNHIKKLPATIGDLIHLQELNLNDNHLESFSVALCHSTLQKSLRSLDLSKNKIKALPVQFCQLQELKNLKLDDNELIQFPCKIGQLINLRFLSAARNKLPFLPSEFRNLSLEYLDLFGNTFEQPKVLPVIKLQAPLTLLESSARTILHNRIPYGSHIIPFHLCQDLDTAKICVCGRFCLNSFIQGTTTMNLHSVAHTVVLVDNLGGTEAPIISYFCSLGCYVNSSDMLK
Chain of TCTA, G9a-methylated (human) (P57738 whole entry): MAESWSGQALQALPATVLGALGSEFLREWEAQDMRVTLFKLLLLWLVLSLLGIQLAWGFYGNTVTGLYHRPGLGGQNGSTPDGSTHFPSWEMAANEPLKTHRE

G9a-GST [1]: 13.8
G9a-GST [2]: 18.6
G9a-GST [3]: 12.2
G9a-GST [4]: 12.1
G9a-GST [5]: 12.4
G9a-GST [6]: 15.2
G9a-GST [7]: 18.4
G9a-GST [8]: 14.9
G9a-GST [9]: 26
G9a-GST [10]: 12.4
G9a-GST [11]: 12.9
G9a-GST [12]: 13.2
G9a-GST [13]: 12.3
G9a-GST [14]: 18.7
G9a-GST [15]: 29.3
G9a-GST [16]: 15.5
G9a-GST [17]: 18.8
G9a-GST [18]: 14
G9a-GST [19]: 13.7
G9a-GST [20]: 13.6
G9a-GST [21]: 16
G9a-GST [22]: 49.5
G9a-GST [23]: 37.6
G9a-GST [24]: 33
G9a-GST [25]: 14
G9a-GST [26]: 25.5
G9a-GST [27]: 16.1
G9a-GST [28]: 14.5
G9a-GST [29]: 15.2
G9a-GST [30]: 18.3
G9a-GST [31]: 19.5
G9a-GST [32]: 14.3
G9a-GST [33]: 12.5
G9a-GST [34]: 13.4
G9a-GST [35]: 16.5
G9a-GST [36]: 15.6
G9a-GST [37]: 14.6
G9a-GST [38]: 12.9
G9a-GST [39]: 13.8
G9a-GST [40]: 12.2
Substance: 3× Flag-3×MBT (designed binder)

Reference: patent US20140274782A1, “AFFINITY REAGENTS AND METHODS FOR DETECTION, PURIFICATION, AND PROTEOMIC ANALYSIS OF METHYLATED PROTEINS” (The Board of Trustees of the Leland Stanford Junior …, priority 2013, published 2014)
